In IntAct's records for PubMed 34591612:

Molecular target: brca1_human BRCA1 (UniProt P38398)
Sequence (P38398 whole entry, looked up): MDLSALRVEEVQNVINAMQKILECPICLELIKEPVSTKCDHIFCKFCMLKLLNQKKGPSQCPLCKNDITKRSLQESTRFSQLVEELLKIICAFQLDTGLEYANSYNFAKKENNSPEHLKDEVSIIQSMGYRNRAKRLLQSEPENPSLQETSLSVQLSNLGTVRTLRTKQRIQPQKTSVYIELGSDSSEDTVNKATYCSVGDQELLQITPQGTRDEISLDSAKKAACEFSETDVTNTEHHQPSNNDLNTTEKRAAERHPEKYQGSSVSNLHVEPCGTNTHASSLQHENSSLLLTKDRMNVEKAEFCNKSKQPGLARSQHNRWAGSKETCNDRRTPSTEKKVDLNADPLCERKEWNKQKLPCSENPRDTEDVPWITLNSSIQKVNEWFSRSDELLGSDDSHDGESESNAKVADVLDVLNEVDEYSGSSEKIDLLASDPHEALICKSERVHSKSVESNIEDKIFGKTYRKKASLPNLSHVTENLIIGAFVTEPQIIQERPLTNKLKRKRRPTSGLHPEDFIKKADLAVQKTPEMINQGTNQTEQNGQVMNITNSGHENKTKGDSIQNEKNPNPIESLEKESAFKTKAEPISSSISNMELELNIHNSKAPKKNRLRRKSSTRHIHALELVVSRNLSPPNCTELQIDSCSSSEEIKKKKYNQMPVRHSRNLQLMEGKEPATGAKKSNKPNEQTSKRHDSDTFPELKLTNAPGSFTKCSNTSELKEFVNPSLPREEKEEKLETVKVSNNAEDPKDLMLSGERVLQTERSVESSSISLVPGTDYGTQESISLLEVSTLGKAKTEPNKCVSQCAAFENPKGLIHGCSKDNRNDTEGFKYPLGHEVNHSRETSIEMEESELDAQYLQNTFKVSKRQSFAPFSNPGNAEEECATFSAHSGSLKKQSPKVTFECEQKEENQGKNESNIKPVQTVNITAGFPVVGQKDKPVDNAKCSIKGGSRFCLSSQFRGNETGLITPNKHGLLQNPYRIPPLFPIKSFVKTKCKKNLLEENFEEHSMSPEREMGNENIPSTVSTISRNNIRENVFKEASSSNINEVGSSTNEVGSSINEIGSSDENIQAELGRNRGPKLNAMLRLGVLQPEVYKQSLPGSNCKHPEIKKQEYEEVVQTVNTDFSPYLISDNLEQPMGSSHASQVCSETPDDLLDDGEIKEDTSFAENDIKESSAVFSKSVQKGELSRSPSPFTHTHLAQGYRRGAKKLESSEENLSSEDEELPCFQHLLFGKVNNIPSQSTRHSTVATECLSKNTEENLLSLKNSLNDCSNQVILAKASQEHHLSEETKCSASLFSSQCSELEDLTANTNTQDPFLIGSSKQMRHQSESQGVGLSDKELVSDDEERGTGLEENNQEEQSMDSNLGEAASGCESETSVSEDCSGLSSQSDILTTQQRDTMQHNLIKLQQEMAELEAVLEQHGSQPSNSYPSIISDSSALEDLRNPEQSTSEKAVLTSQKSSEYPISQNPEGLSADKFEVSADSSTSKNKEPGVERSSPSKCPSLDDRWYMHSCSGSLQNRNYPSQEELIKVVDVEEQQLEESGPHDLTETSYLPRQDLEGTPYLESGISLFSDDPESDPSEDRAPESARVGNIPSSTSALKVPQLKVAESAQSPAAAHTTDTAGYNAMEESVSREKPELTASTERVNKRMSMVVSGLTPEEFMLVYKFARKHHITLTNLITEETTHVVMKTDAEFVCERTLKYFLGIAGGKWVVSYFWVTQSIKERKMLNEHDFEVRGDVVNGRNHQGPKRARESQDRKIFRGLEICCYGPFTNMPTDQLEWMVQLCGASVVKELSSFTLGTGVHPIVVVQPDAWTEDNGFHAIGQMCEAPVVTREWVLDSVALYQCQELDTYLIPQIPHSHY

Sequence of Neurabin-2 (Homo sapiens), Q96SB3 F451A (Q96SB3 whole entry F451A): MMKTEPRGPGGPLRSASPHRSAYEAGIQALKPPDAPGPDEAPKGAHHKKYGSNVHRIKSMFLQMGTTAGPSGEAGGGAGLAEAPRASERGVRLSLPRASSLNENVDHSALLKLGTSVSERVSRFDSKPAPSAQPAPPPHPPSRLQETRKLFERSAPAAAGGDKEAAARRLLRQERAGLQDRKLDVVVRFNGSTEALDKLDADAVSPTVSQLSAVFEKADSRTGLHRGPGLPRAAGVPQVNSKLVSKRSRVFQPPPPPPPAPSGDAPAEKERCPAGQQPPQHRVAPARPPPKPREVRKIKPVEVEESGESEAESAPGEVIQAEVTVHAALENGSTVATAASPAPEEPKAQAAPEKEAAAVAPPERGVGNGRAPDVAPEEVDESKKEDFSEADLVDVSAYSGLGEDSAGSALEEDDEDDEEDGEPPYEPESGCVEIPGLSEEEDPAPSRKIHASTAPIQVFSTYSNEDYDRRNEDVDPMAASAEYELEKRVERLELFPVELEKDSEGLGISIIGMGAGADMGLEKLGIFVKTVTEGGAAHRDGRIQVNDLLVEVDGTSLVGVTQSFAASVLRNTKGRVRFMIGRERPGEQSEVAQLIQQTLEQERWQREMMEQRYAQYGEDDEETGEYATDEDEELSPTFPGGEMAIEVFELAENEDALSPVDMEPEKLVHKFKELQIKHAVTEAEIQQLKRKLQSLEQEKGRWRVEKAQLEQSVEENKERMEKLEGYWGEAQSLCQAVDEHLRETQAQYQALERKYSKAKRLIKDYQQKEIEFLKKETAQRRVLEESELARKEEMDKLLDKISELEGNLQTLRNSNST

effect of a mutation on the interaction | Substance
increasing interaction | Neurabin-2 (Homo sapiens), Q96SB3 F451A
decreasing interaction | Neurabin-2 (Homo sapiens), Q96SB3 S212A
increasing interaction | Neurabin-2 (Homo sapiens), Q96SB3 S248A
disrupting interaction | Neurabin-2 (Homo sapiens), Q96SB3 S635A
